# Test results taken from PMC9098913, “In vitro reconstitution of Escherichia coli divisome activation” (Nature Communications, 2022).
# B1: FtsA R286W-His6: FtsA R286W (1-405) with amphipathic helix replaced by C-terminal His-tag (protein)
# chain: MIKATDRKLVVGLEIGTAKVAALVGEVLPDGMVNIIGVGSCPSRGMDKGGVNDLESVVKCVQRAIDQAELMADCQISSVYLALSGKHISCQNEIGMVPISEEEVTQEDVENVVHTAKSVRVRDEHRVLHVIPQEYAIDYQEGIKNPVGLSGVRMQAKVHLITCHNDMAKNIVKAVERCGLKVDQLIFAGLASSYSVLTEDERELGVCVVDIGGGTMDIAVYTGGALRHTKVIPYAGNVVTSDIAYAFGTPPSDAEAIKVRHGCALGSIVGKDESVEVPSVGGRPPWSLQRQTLAEVIEPRYTELLNLVNEEILQLQEKLRQQGVKHHLAAGIVLTGGAAQIEGLAACAQRVFHTQVRIGAPLNITGLTDYAQEPYYSTAVGLLHYGKESHLNGEAEVEKRVTASV
# modifications: Cy3 or Cy5 at the N-terminus in the labelled form (sortagging as for native FtsA); left off: TwinStrep-SUMO, N-terminal, cleaved | 5xGlycine tag, N-terminal, kept | His6, C-terminal, kept
# Tested on: FtsA self-interaction
# Experiment: FRET self-interaction of His-tagged FtsAs (and His-SUMO control) on Tris-NTA membranes
# Assay type: binding, E. coli
# Protocol: To study colocalization of His-tagged variants of FtsA, 0.5–1 µM of Cy5 labelled His-tagged FtsAs were added to the chamber, incubated for 20 min and washed 6x with reaction buffer. […] To control the density of membrane-bound FtsA, SUVs without and with Tris-NTA lipids were mixed to obtain the respective Tris-NTA concentrations. To perform FRET/FRAP experiments, equimolar concentrations of Cy3 and Cy5 labelled His-tagged FtsAs (total 0.5–1 µM) or His-SUMO-Cys were added to a chamber and treated as above. […] FRAP experiments were performed as described before.
# Bleaching the acceptor dye leads to an increase in the donor intensity, which can be used to quantify the Foerster Resonance energy transfer (FRET)[48]. FRET efficiency was quantified with E%=Ipost/Ipost+Ipre⋅100 , where Ipost is the intensity of the […] and Ipre is the […]. […] To extract the contribution of both processes, we adjusted a routine recently published by Gerganova et al.[33]. In short, the code provides the contribution of both modes of recovery by analysing the shape of the fluorescence recovery profile. […] Contribution of diffusion leads to a change of the slope of the outer borders of the bleached region (S4h right). Thus, by measuring the change of the slope of the border recovery, diffusion and simple on/off binding can be distinguished. We developed “FRAPdiff”, a graphical user interface, which uses the original fit routine by David Rutkowski. It can be used directly on.tiff movies with annotated bleach regions as ImageJ ROIs. In addition, we added optional bleach correction, user selectable projection axis (x or y), and optional mirroring of the recovery profiles, if bleaching was not symmetric. The original fit routine for estimating the recovery and diffusion dynamics can be found at https://github.com/davidmrutkowski/1DReflectingDiffusion. FRAPdiff is available at 10.5281/zenodo.6400639[49] under the GPLv3 open-source license.
molecule,measurement,setting,value
B1,FRET efficiency,"0.1% Tris NTA, + FtsZ; Exp1",0.51%
same,FRET efficiency,"0.1% Tris NTA, + FtsZ; Exp2",0.32%
same,FRET efficiency,"0.1% Tris NTA, + FtsZ; mean, n = 2",0.42%
same,FRET efficiency,"0.1% Tris NTA, without FtsZ; Exp1",0.42%
same,FRET efficiency,"0.1% Tris NTA, without FtsZ; Exp2",0.20%
same,FRET efficiency,"0.1% Tris NTA, without FtsZ; mean, n = 2",0.31%
same,FRET efficiency,0.4% Tris NTA; + FtsZ; Exp1,4.18%
same,FRET efficiency,0.4% Tris NTA; + FtsZ; Exp2,2.69%
same,FRET efficiency,"0.4% Tris NTA; + FtsZ; Mean, n = 2",3.43%
same,FRET efficiency,0.4% Tris NTA; without FtsZ; Exp1,3.62%
same,FRET efficiency,0.4% Tris NTA; without FtsZ; Exp2,3.61%
same,FRET efficiency,"0.4% Tris NTA; without FtsZ; Mean, n = 2",3.62%
same,FRET efficiency,0.6% Tris NTA; + FtsZ; Exp1,3.82%
same,FRET efficiency,0.6% Tris NTA; + FtsZ; Exp2,8.42%
same,FRET efficiency,0.6% Tris NTA; + FtsZ; Exp3,3.49%
same,FRET efficiency,"0.6% Tris NTA; + FtsZ; Mean, n = 3",5.24%
same,FRET efficiency,0.6% Tris NTA; without FtsZ; Exp1,2.27%
same,FRET efficiency,0.6% Tris NTA; without FtsZ; Exp2,7.55%
same,FRET efficiency,0.6% Tris NTA; without FtsZ; Exp3,3.60%
same,FRET efficiency,"0.6% Tris NTA; without FtsZ; Mean, n = 3 (His6-SUMO n = 2)",4.47%
same,FRET efficiency,0.8% Tris NTA; + FtsZ; Exp1,12.66%
same,FRET efficiency,0.8% Tris NTA; + FtsZ; Exp2,13.96%
same,FRET efficiency,0.8% Tris NTA; + FtsZ; Exp3,6.95%
same,FRET efficiency,"0.8% Tris NTA; + FtsZ; Mean, n = 3",11.19%
same,FRET efficiency,0.8% Tris NTA; without FtsZ; Exp1,11.90%
same,FRET efficiency,0.8% Tris NTA; without FtsZ; Exp2,13.18%
same,FRET efficiency,0.8% Tris NTA; without FtsZ; Exp3,7.63%
same,FRET efficiency,"0.8% Tris NTA; without FtsZ; Mean, n = 3 (His6-SUMO n = 2)",10.90%
same,FRET efficiency,1% Tris NTA; + FtsZ; Exp1,18.63%
same,FRET efficiency,1% Tris NTA; + FtsZ; Exp2,11.68%
same,FRET efficiency,1% Tris NTA; + FtsZ; Exp3,16.69%
same,FRET efficiency,1% Tris NTA; + FtsZ; Exp4,5.28%
same,FRET efficiency,"1% Tris NTA; + FtsZ; Mean, n = 3 (R286W-His6 n = 4)",13.07%
same,FRET efficiency,1% Tris NTA; without FtsZ; Exp1,13.30%
same,FRET efficiency,1% Tris NTA; without FtsZ; Exp2,11.28%
same,FRET efficiency,1% Tris NTA; without FtsZ; Exp3,16.33%
same,FRET efficiency,1% Tris NTA; without FtsZ; Exp4,5.94%
same,FRET efficiency,"1% Tris NTA; without FtsZ; Mean, n = 3 (R286W-His6 n = 4)",11.71%
same,FRET efficiency,2% Tris NTA; + FtsZ; Exp1,13.95%
same,FRET efficiency,2% Tris NTA; + FtsZ; Exp2,11.07%
same,FRET efficiency,"2% Tris NTA; + FtsZ; Mean, n = 2",12.51%
same,FRET efficiency,2% Tris NTA; without FtsZ; Exp1,11.54%
same,FRET efficiency,2% Tris NTA; without FtsZ; Exp2,10.61%
same,FRET efficiency,"2% Tris NTA; without FtsZ; Mean, n = 2",11.08%
same,FRET efficiency,"Tris 0.40 %, + FtsZ; mean",3.43%
same,FRET efficiency,"Tris 0.40 %, without FtsZ; mean",3.61%
same,FRET efficiency,"Tris 0.60 %, + FtsZ; mean",5.24%
same,FRET efficiency,"Tris 0.60 %, without FtsZ; mean",4.47%
same,FRET efficiency,"Tris 0.80 %, + FtsZ; mean",11.19%
same,FRET efficiency,"Tris 0.80 %, without FtsZ; mean",10.90%
same,FRET efficiency,"Tris 1.00 %, + FtsZ; mean",13.07%
same,FRET efficiency,"Tris 1.00 %, without FtsZ; mean",11.71%
same,FRET efficiency,"Tris 2.00 %, + FtsZ; mean",12.51%
same,FRET efficiency,"Tris 2.00 %, without FtsZ; mean",11.08%
same,FRET efficiency,"[…] Tris NTA, + FtsZ; Exp1",3.67%
same,FRET efficiency,"[…] Tris NTA, + FtsZ; Exp2",2.76%
same,FRET efficiency,"[…] Tris NTA, + FtsZ; mean, n = 2",3.22%
same,FRET efficiency,"[…] Tris NTA, without FtsZ; Exp1",3.93%
same,FRET efficiency,"[…] Tris NTA, without FtsZ; Exp2",1.52%
same,FRET efficiency,"[…] Tris NTA, without FtsZ; mean, n = 2",2.73%
same,FRET efficiency,[…] Tris NTA; + FtsZ; Exp1,8.55%
same,FRET efficiency,[…] Tris NTA; + FtsZ; Exp2,12.05%
same,FRET efficiency,[…] Tris NTA; + FtsZ; Exp3,9.96%
same,FRET efficiency,"[…] Tris NTA; + FtsZ; Mean, n = 3",10.19%
same,FRET efficiency,[…] Tris NTA; without FtsZ; Exp1,9.50%
same,FRET efficiency,[…] Tris NTA; without FtsZ; Exp2,13.25%
same,FRET efficiency,[…] Tris NTA; without FtsZ; Exp3,7.80%
same,FRET efficiency,"[…] Tris NTA; without FtsZ; Mean, n = 3",10.18%
same,FRET increase with FtsNcyto-His,[…] Tris-NTA,more than twofold
same,FRET efficiency,[…] Tris-NTA; + N (FtsNcyto); mean,18.47%
same,FRET efficiency,[…] Tris-NTA; + N/Z (FtsNcyto and FtsZ); mean,17.73%
same,FRET efficiency,[…] Tris-NTA; + N/Z; Exp. 1,21.67%
same,FRET efficiency,[…] Tris-NTA; + N/Z; Exp. 2,17.33%
same,FRET efficiency,[…] Tris-NTA; + N/Z; Exp. 3,14.20%
same,FRET efficiency,[…] Tris-NTA; + N; Exp. 1,22.02%
same,FRET efficiency,[…] Tris-NTA; + N; Exp. 2,17.07%
same,FRET efficiency,[…] Tris-NTA; + N; Exp. 3,16.35%
same,FRET efficiency,[…] Tris-NTA; + Z (FtsZ); mean,8.99%
same,FRET efficiency,[…] Tris-NTA; + Z; Exp. 1,5.42%
same,FRET efficiency,[…] Tris-NTA; + Z; Exp. 2,8.55%
same,FRET efficiency,[…] Tris-NTA; + Z; Exp. 3,12.05%
same,FRET efficiency,[…] Tris-NTA; + Z; Exp. 4,9.96%
same,FRET efficiency,[…] Tris-NTA; alone; Exp. 1,4.90%
same,FRET efficiency,[…] Tris-NTA; alone; Exp. 2,9.50%
same,FRET efficiency,[…] Tris-NTA; alone; Exp. 3,13.25%
same,FRET efficiency,[…] Tris-NTA; alone; Exp. 4,7.80%
same,FRET efficiency,[…] Tris-NTA; alone; mean,8.86%
same,FRET efficiency,with FtsNcyto attached to the membrane; mean ± s.d.; p-value 0.03,17.73 ± 3.06%
